Results taken from patent US20230201308A1, “TREATMENT OF CORONAVIRUS INFECTION WITH […]” (Eiger Biopharmaceuticals, Inc., priority 2020, published 2023).
Like-named read-outs stand apart in the source and are kept apart here.

System: SARS-CoV-2
[1] = High risk population, Brazil and Toronto, N = 709
[2] = High risk population, Brazil and Toronto, N = 709 vs placebo N = 836
[3] = High risk population, Brazil, N = 698

B1: pegylated interferon lambda-1a (protein)
chain: MKPTTTGKGCHIGRFKSLSPQELASFKKARDALEESLKLKNWSCSSPVFPGNWDLRLLQVRERPVALEAELALTLKVLEAAAGPALEDVLDQPLHTLHHILSQLQACIQPQPTAGPRPRGRLHHWLHRLQEAPKKESAGCLEASVTFNLFRLLTRDLKYVADGNLSLRTSTHPEST
modifications: PEG
notes: 180 mcg subcutaneous injection
ER visit ≥6 h or hospitalization due to COVID-19: events/patients (All): 25/931
All cause death or hospitalization for COVID-19: events/patients (All, Brazil+Toronto): 24/931
All cause death or hospitalization for COVID-19: Bayes prob, Dichotomous (All, vs placebo): 0.951
All cause death or hospitalization for COVID-19: Bayes prob, TTE (All, vs placebo): 0.9557
All cause death or hospitalization for COVID-19: HR (95% CrI), TTE (All, vs placebo): 0.65 (0.39, 1.05)
All cause death or hospitalization for COVID-19: RR (95% CrI), Dichotomous (All, vs placebo): 0.66 (0.40, 1.07)
ER visit ≥6 h or hospitalization due to COVID-19: Bayes prob, Dichotomous (All, vs placebo): 0.999
ER visit ≥6 h or hospitalization due to COVID-19: Bayes prob, TTE (All, vs placebo): 0.9995
ER visit ≥6 h or hospitalization due to COVID-19: HR (95% CrI), TTE (All, vs placebo): 0.47 (0.29, 0.73)
ER visit ≥6 h or hospitalization due to COVID-19: RR (95% CrI), Dichotomous (All, vs placebo): 0.49 (0.30, 0.76)
HR, all-cause mortality or hospitalization due to COVID-19, Time-to-Event analysis (Brazil+Toronto combined): 0.65
RR, all-cause mortality or hospitalization due to COVID-19 (Brazil+Toronto combined): 0.66
All cause ER visit >6 h, hospitalization, or death: percentage [1]: (4.2%)
All cause ER visit >6 h, hospitalization, or death: total [1]: 30
All cause ER visit, hospitalization, or death: percentage [1]: (13.7%)
All cause ER visit, hospitalization, or death: total [1]: 97
All cause death or hospitalization due to COVID-19: percentage [1]: (3.1%)
All cause death or hospitalization due to COVID-19: total [1]: 22
Days of hospitalization [1]: 0 days
Days on mechanical ventilation [1]: 0 days
Days to recovery: median [1]: 14 days
Death due to COVID-19: percentage [1]: (0.1%)
Death due to COVID-19: total [1]: 1
Death or hospitalization due to COVID-19: percentage [1]: (2.8%)
Death or hospitalization due to COVID-19: total [1]: 20
Hospitalization for COVID-19 (excluding those resulting in death): percentage [1]: (2.7%)
Hospitalization for COVID-19 (excluding those resulting in death): total [1]: 19
Hospitalization or ER (any duration) for COVID-19: percentage [1]: (10.7%)
Hospitalization or ER (any duration) for COVID-19: total [1]: 76
Hospitalization or ER >6 h for COVID-19: percentage [1]: (3.1%)
Hospitalization or ER >6 h for COVID-19: total [1]: 22
Mechanical ventilation: percentage [1]: (0.6%)
Mechanical ventilation: total [1]: 4
All cause ER visit >6 h, hospitalization, or death: Pr (Superiority) [2]: 0.983
All cause ER visit >6 h, hospitalization, or death: RR (95% CrI), estimated treatment effect [2]: 0.64 (0.41, 0.97)
All cause ER visit, hospitalization, or death: Pr (Superiority) [2]: 0.887
All cause ER visit, hospitalization, or death: RR (95% CrI), estimated treatment effect [2]: 0.86 (0.68, 1.10)
All cause death or hospitalization due to COVID-19: Pr (Superiority) [2]: 0.927
All cause death or hospitalization due to COVID-19: RR (95% CrI), estimated treatment effect [2]: 0.69 (0.41, 1.14)
Days of hospitalization: MD (95% CrI), estimated treatment effect [2]: −1.39 (−4.38, 1.20)
Days of hospitalization: Pr (Superiority) [2]: 0.8509
Days on mechanical ventilation: MD (95% CrI), estimated treatment effect [2]: −4.47 (−6.89, 3.09)
Days on mechanical ventilation: Pr (Superiority) [2]: 0.9052
Days to death for COVID-19: HR (95% CrI), estimated treatment effect [2]: 0.23 (0.01, 1.95)
Days to death for COVID-19: Pr (Superiority) [2]: 0.9040
Days to hospitalization for COVID-19: HR (95% CrI), estimated treatment effect [2]: 0.57 (0.33, 0.99)
Days to hospitalization for COVID-19: Pr (Superiority) [2]: 0.9770
Days to hospitalization or ER visit >6 h for COVID-19: HR (95% CrI), estimated treatment effect [2]: 0.47 (0.29, 0.74)
Days to hospitalization or ER visit >6 h for COVID-19: Pr (Superiority) [2]: 0.9992
Days to hospitalization or death for COVID-19: HR (95% CrI), estimated treatment effect [2]: 0.61 (0.35, 1.07)
Days to hospitalization or death for COVID-19: Pr (Superiority) [2]: 0.9610
Days to recovery: HR (95% CrI), estimated treatment effect [2]: 0.93 (0.83, 1.04)
Days to recovery: Pr (Superiority) [2]: 0.8862
Death due to COVID-19: Pr (Superiority) [2]: 0.847
Death due to COVID-19: RR (95% CrI), estimated treatment effect [2]: 0.42 (0.05, 2.06)
Death or hospitalization due to COVID-19: Pr (Superiority) [2]: 0.961
Death or hospitalization due to COVID-19: RR (95% CrI), estimated treatment effect [2]: 0.63 (0.37, 1.05)
Hospitalization for COVID-19 (excluding those resulting in death): Pr (Superiority) [2]: 0.931
Hospitalization for COVID-19 (excluding those resulting in death): RR (95% CrI), estimated treatment effect [2]: 0.67 (0.38, 1.14)
Hospitalization or ER (any duration) for COVID-19: Pr (Superiority) [2]: 0.992
Hospitalization or ER (any duration) for COVID-19: RR (95% CrI), estimated treatment effect [2]: 0.72 (0.55, 0.94)
Hospitalization or ER >6 h for COVID-19: Pr (Superiority) [2]: 0.999
Hospitalization or ER >6 h for COVID-19: RR (95% CI), estimated treatment effect [2]: 0.49 (0.30, 0.78)
Mechanical ventilation: Pr (Superiority) [2]: 0.716
Mechanical ventilation: RR (95% CrI), estimated treatment effect [2]: 0.72 (0.21, 2.20)
All cause ER visit >6 h, hospitalization, or death: percentage [3]: (4.3%)
All cause ER visit >6 h, hospitalization, or death: total [3]: 30
All cause ER visit, hospitalization, or death: percentage [3]: (13.9%)
All cause ER visit, hospitalization, or death: total [3]: 97
All cause death or hospitalization due to COVID-19: percentage [3]: (3.2%)
All cause death or hospitalization due to COVID-19: total [3]: 22
Days of hospitalization [3]: 0 days
Days on mechanical ventilation [3]: 0 days
Days to recovery: median [3]: 14 days
Death due to COVID-19: percentage [3]: (0.1%)
Death due to COVID-19: total [3]: 1
Death or hospitalization due to COVID-19: percentage [3]: (2.9%)
Death or hospitalization due to COVID-19: total [3]: 20
Hospitalization for COVID-19 (excluding those resulting in death): percentage [3]: (2.7%)
Hospitalization for COVID-19 (excluding those resulting in death): total [3]: 19
Hospitalization or ER (any duration) for COVID-19: percentage [3]: (10.9%)
